Measurements as given in publication PMC5554458 (Cellular signalling, 2017).

What was measured:
Experiment in all cases: inhibition of enzyme activity
PDE6C-H262N = PDE6C-H262N (human, UniProt P51160 1-858, H262N)
PDE6C-L858V = PDE6C-L858V (human, UniProt P51160 1-858, L858V, farnesyl on the Cys of the C-terminal CAAX box (farnesylated PDE6C-L858V))
PDE6C-Y323N = PDE6C-Y323N (human, UniProt P51160 1-858, Y323N)
PDE6C-Y323N, sequence (P51160 whole entry Y323N): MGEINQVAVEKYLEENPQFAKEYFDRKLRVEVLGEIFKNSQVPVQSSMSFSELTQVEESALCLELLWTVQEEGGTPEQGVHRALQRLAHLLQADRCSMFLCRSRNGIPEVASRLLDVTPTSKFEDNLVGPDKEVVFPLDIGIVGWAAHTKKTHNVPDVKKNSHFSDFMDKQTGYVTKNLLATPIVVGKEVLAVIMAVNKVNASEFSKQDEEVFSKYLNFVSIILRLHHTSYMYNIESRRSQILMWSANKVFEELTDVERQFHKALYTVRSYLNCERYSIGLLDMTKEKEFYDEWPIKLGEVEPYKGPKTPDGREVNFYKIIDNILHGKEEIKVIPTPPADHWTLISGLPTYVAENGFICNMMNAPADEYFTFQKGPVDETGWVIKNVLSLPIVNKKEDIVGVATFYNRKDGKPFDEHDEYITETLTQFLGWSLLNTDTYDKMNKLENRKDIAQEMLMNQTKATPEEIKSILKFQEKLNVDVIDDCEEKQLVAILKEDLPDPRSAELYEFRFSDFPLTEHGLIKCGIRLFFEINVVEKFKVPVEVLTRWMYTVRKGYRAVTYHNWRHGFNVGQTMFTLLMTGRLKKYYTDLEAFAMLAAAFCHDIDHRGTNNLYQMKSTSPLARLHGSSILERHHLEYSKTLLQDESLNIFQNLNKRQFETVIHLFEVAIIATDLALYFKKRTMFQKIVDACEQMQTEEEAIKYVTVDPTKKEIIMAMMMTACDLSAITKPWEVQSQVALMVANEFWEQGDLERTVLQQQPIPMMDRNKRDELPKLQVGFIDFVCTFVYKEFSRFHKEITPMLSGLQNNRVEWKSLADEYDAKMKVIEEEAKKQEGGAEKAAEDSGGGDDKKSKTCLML

PDE6C-H262N, sequence (P51160 whole entry H262N): as the sequence (P51160 whole entry Y323N) above, with H262N, N323Y counted along it
PDE6C-L858V, sequence (P51160 whole entry L858V): as the sequence (P51160 whole entry Y323N) above, with N323Y, L858V counted along it

Ki (PDE6C-H262N): 0.222 nM | Ki (PDE6C-L858V): 0.114 nM | Ki (PDE6C-Y323N): 0.176 nM
B1: bovine rod Pγ (natural protein, UniProt P04972 1-87, looked up)
chain: MNLEPPKAEIRSATRVMGGPVTPRKGPPKFKQRQTRQFKSKPPKKGVQGFGDDIPGMEGLGTDITVICPWEAFNHLELHELAQYGII
